In WO2022034912A1 (dated 2022):

T1: mouse TRPV2 (mouse, UniProt Q9WTR1 1-756)
T1 construct: whole, on cells; In the Western blot solubilised from the cells; also called mTRPV2; mTRPV2-expressing HEK293 cells
T1 sequence (looked up): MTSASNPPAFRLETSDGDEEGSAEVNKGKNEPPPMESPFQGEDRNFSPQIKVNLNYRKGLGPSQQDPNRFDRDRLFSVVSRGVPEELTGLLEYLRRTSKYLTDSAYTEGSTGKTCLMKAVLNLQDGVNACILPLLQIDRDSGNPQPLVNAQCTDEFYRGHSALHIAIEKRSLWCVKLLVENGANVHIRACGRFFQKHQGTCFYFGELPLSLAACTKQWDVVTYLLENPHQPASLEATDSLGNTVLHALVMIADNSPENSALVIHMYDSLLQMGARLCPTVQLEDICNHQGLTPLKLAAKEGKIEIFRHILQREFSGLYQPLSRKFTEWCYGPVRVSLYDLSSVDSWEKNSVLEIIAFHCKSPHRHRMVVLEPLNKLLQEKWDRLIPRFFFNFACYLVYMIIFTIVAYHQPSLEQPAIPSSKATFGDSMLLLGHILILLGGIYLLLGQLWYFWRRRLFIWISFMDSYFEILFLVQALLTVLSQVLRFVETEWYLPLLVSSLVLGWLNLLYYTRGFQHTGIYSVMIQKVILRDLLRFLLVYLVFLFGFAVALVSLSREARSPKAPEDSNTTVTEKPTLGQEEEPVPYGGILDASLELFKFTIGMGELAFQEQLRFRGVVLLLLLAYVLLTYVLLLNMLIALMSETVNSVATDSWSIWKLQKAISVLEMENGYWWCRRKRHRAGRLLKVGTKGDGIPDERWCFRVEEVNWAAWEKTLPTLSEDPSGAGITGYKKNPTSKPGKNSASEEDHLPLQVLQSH

T2: hTRPV2 extracellular domain-biotin (572-609) (human, biotin added with the lysine residue at the C-terminus)
T2 construct: Synthetic polypeptide, analyte in the SPR measurement; also called hTRPV2 extracellular domain (572-609)
T2 peptide: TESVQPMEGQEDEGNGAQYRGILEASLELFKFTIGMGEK

T3: human TRPV2 (transient receptor potential cation channel, subfamily V, member 2) (human, UniProt Q9Y5S1 1-764)
T3 sequence: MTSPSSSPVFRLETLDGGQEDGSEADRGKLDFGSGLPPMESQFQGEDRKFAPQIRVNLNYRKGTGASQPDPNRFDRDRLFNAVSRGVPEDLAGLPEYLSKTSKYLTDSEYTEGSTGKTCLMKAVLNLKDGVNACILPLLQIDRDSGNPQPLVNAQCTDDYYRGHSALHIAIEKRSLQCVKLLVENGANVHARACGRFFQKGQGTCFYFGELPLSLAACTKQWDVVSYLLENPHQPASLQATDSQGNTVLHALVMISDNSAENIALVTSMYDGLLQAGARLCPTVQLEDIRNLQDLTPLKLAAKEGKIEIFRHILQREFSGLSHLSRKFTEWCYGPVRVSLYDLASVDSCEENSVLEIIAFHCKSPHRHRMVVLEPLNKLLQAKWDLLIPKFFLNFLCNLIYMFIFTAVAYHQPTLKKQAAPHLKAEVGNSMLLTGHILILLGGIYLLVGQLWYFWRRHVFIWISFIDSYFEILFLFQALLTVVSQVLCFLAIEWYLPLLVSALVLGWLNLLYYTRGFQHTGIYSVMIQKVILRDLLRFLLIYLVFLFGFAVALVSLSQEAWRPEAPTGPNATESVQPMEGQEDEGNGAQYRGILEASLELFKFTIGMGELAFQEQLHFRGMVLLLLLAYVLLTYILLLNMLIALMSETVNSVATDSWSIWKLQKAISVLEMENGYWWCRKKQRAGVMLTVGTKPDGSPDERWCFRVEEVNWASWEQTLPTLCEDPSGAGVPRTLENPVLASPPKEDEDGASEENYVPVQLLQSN

T4: biotinylated hTRPV2 (hTRPV2 full-length expression vector with Myc-Biotinylation-His tag, expressed in HEK293 … (human, UniProt Q9Y5S1 1-764, biotinylated on the tag (Myc-Biotin-His tag)))
T4 construct: also called biotinylated hTRPV2-expressing HEK293 cells; not shown: Myc-Biotinylation-His tag
T4 sequence: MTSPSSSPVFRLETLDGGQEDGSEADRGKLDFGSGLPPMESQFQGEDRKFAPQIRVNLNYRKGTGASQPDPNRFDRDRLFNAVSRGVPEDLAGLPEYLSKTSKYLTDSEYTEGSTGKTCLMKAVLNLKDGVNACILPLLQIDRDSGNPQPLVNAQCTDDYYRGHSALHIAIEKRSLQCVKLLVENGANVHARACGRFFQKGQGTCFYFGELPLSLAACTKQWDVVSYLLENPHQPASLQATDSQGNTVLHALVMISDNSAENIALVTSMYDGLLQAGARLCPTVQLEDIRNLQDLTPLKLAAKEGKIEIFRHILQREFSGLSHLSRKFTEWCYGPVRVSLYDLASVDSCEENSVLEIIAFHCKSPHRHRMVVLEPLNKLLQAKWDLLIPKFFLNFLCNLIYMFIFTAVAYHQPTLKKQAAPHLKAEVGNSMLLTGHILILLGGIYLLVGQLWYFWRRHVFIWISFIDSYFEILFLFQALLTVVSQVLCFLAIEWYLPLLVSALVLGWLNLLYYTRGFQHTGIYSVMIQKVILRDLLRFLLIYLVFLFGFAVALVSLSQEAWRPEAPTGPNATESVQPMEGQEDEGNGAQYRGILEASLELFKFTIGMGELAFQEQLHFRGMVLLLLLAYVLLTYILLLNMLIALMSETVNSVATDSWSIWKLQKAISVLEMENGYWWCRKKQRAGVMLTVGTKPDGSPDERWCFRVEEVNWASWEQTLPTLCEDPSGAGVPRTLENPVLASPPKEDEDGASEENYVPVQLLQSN


Tests used:
[1] = molecular target: T1, mouse TRPV2; experiment: Western blot of solubilised mTRPV2-expressing HEK293 cells
[2] = molecular target: T2, hTRPV2 extracellular domain-biotin …; experiment: SPR (Biacore T200), antibody captured on anti-mouse IgG(Fc), peptide 10-1000 nM as analyte, 1:1 model
[3] = molecular target: T3, human TRPV2 (transient receptor …); experiment: cell-based or functional assay
[4] = molecular target: T4, biotinylated hTRPV2 (hTRPV2 full-length …); experiment: flow cytometry on hTRPV2-expressing 293 cells, purified IgG

| Binder | binding result [4] | further results |
| --- | --- | --- |
| anti-human TRPV2 IgG antibody mAb002 (02a001) (antibody, V domains shown, Mouse IgG: VH joined to mouse CH1,2,3 and VL to CK, made in CHO-K1 cells, purified on Protein A; also called anti-hTRPV2 antibody (mAb002)) VH: QVQLKQSGPVLVAPSQSLSITCTVSGFSLTSFGIHWVRQPPGKGLEWLGVIWSGGITHYNSALMSRLSISKDNSKSQVFLKMNSLQTDDTAMYYCAKLYSHPHAMDYWGQGTSVTVSS VL: DIVMTQAAPSVPVTPGESVSISCRSSKSLLHSNGITYLYWFLQRPGQSPQLLIYRMSNLASGVPDRFSASGSGTAFTLRISRVEAEDVGVYYCMQHLEYPLTFGAGTKLELK | – | binding result [1]: no binding (tested: 500-fold dilution); Kd [2]: 0.0192 µM; IC50 of the inhibition of Ca 2+ influx into hTRPV2-expressing HEK293 cells (Cal520 fluorescence, cannabidiol and probenecid stimulation) [3]: 0.0089 µM |
| anti-human TRPV2 IgG antibody mAb001 (01a033) (antibody, V domains shown, Mouse IgG: VH joined to mouse CH1,2,3 and VL to CK, made in CHO-K1 cells, purified on Protein A; also called anti-hTRPV2 antibody (mAb001)) VH: QVQLKESGPDLVQPSQTLSLTCTVSGFSLTTYGVHWVRQPPGKGLEWVGTMGWDGKKYYNSALKSRLSISRDTSKNQVFLKLSSLQTEDTAMYYCTRDGGYTWFAYWGQGTLVTVSA VL: NIVMTQSPSSLAVSAGEKVTMSCKSSQSLLNSRTRKNYLAWYQQKPGQSPKLLIYWASTRESGVPDRFTGSGSGTDFTLTISSVQAEDLAVYYCKQSYNLFTFGGGTKLEIK | – | Kd [2]: 0.188 µM |
| humanized mAb002 antibody (VH14+VL1) (antibody, V domains shown, Full-length human IgG made in Expi293F cells) VH: QVQLQESGPGLVKPSQSLSLTCTVSGFSLTSFGIHWIRQPPGKGLEWIGVIWSGGITHYNSALMSRVSISKDTSKNQVFLKLSSVTAADTAMYYCAKLYSHPHAMDYWGQGTLVTVSS VL: DIVMTQSPLSLPVTPGEPASISCRSSKSLLHSNGITYLYWYLQKPGQSPQLLIYRMSNLASGVPDRFSGSGSGTDFTLKISRVEAEDVGVYYCMQHLEYPLTFGGGTKLEIK | binds | – |
| humanized mAb002 antibody (VH12+VL1) (antibody, V domains shown, Full-length human IgG made in Expi293F cells) VH: QVQLQESGPGLVKPSQSLSLTCTVSGFSLTSFGIHWIRQPPGKGLEWIGVIWSGGITHYNSALMSRVSISKDNSKNQVFLKMNSVTAADTAMYYCAKLYSHPHAMDYWGQGTLVTVSS VL: DIVMTQSPLSLPVTPGEPASISCRSSKSLLHSNGITYLYWYLQKPGQSPQLLIYRMSNLASGVPDRFSGSGSGTDFTLKISRVEAEDVGVYYCMQHLEYPLTFGGGTKLEIK | binds | – |
| humanized mAb002 antibody (VH13+VL1) (antibody, V domains shown, Full-length human IgG made in Expi293F cells) VH: QVQLKQSGPGLVAPSQSLSITCTVSGFSLTSFGIHWIRQPPGKGLEWIGVIWSGGITHYNSALMSRLSISKDTSKNQVFLKLSSVTAADTAMYYCAKLYSHPHAMDYWGQGTLVTVSS VL: DIVMTQSPLSLPVTPGEPASISCRSSKSLLHSNGITYLYWYLQKPGQSPQLLIYRMSNLASGVPDRFSGSGSGTDFTLKISRVEAEDVGVYYCMQHLEYPLTFGGGTKLEIK | binds | – |
| humanized mAb002 antibody (VH15+VL1) (antibody, V domains shown, Full-length human IgG made in Expi293F cells) VH: QVQLQESGPGLVKPSQSLSLTCTVSGFSLTSFGIHWIRQPPGKGLEWIGVIWSGGITHYNSALMSRVSISKDTSKNQVSLKLSSVTAADTAMYYCAKLYSHPHAMDYWGQGTLVTVSS VL: DIVMTQSPLSLPVTPGEPASISCRSSKSLLHSNGITYLYWYLQKPGQSPQLLIYRMSNLASGVPDRFSGSGSGTDFTLKISRVEAEDVGVYYCMQHLEYPLTFGGGTKLEIK | binds | – |
| humanized mAb002 antibody (VH16+VL1) (antibody, V domains shown, Full-length human IgG made in Expi293F cells) VH: QVQLQESGPGLVAPSQTLSLTCTVSGFSLTSFGIHWIRQPPGKGLEWIGVIWSGGITHYNSALMSRVSISKDTSKNQVFLKLSSVTAADTAMYYCAKLYSHPHAMDYWGQGTLVTVSS VL: DIVMTQSPLSLPVTPGEPASISCRSSKSLLHSNGITYLYWYLQKPGQSPQLLIYRMSNLASGVPDRFSGSGSGTDFTLKISRVEAEDVGVYYCMQHLEYPLTFGGGTKLEIK | binds | – |
